Measurements as given in PMC9059161.

Target: RHAU–casp9

**Q.** With RHAU–casp9 (enzyme) as the substance, how does the time to cleave half of casp3 (12 μM) by RHAU–casp9 (150 nM) without TERRA read?
**A.** 120 min
